Target: recombinant human PD-L1-Fc fusion protein (dimeric form) (human)
Assay: SEC; SE-HPLC of the two bought PD-L1 ligands (Supplementary Figure S1); conditions not given

recombinant human PD-L1-Fc fusion protein (dimeric form)
stoichiometry N: 2

— PMC8386121
